The text below walks through data of publication PMC5299410.

By pKa is commonly meant the negative logarithm of the acid dissociation constant.

“And” between values parts separate entries of the source, which are not always exact repeats. Identical values can stand only once.

The target in one series is Cys35 (UniProt position 36, EWCGPCKMIAP). Kind of series: chemical modification. The settings on record: 120 mM NaCl plus buffer components, 30 mM ACES, 15.6 mM ethanolamine, 15.6 mM TRIS, 0.1 mM DTPA, reduced (dithiol) thioredoxin, DTT removed by gel filtration, folded. (SEC sorts molecules by how far they enter the pores of the column.)
Series [1] addresses T1, Cys32 (UniProt position 33, FWAEWCGPCKM). Kind of series: chemical modification. The settings on record: 120 mM NaCl plus buffer components, 30 mM ACES, 15.6 mM ethanolamine, 15.6 mM TRIS, 0.1 mM DTPA, reduced (dithiol) thioredoxin, DTT removed by gel filtration, folded.
Series [2] deals with T1, Cys32. The experiment in a line: fluorescence. To be noted: not stated (no added NaCl mentioned); 15 mM acetic acid, 15 mM MES, 30 mM Tris, 100 μM dtpa, 2 mM DTT; reduced (dithiol) thioredoxin in the presence of 2 mM DTT; folded.

As to “Thioredoxin 1 (EcTRX) L94A (Escherichia coli; L94A)”, the values for the pKa with Cys35 and with Cys32 [1] were 8.8 ± 0.1 and 6.9 ± 0.1, respectively.

As to “Thioredoxin 1 (EcTRX), wild type (Escherichia coli)”, the pKa with Cys35 was 9.3 ± 0.3; with Cys32 [1], 7.3 ± 0.3; with Cys32 [2] it was 7.5 ± 0.2 and 7.23 ± 0.06.

As to “Thioredoxin 1 (EcTRX) E101G (Escherichia coli; E101G)”, the pKa in the series with Cys35 was 9.0 ± 0.2; with Cys32 [1], 6.80 ± 0.20; with Cys32 [2] it was 7.1 ± 0.1 and 7.10 ± 0.04.

For the substance “Thioredoxin 1 (EcTRX) L107A (Escherichia coli; L107A)”, the pKa in the series with Cys32 [1] is 7.3 ± 0.1.

As for “Thioredoxin 1 (EcTRX) N106A (Escherichia coli; N106A)”, the pKa with Cys35 was determined as 8.9 ± 0.1; with Cys32 [1], 6.5 ± 0.1.
